{"source": "patent US8367368B2", "about": "“D-serine dehydratase and use thereof” (National University Corporation Nagoya University, priority 2006, dated 2013)", "assay_type_in_all_cases": "biochemical", "key": {"[1]": {"biological_target": "T1, novel D-serine dehydratase (Saccharomyces cerevisiae, UniProt P53095)", "T1 construct": "made in house; host or cells: Escherichia coli BL21 (DE3)", "T1 sequence (P53095 1-428)": "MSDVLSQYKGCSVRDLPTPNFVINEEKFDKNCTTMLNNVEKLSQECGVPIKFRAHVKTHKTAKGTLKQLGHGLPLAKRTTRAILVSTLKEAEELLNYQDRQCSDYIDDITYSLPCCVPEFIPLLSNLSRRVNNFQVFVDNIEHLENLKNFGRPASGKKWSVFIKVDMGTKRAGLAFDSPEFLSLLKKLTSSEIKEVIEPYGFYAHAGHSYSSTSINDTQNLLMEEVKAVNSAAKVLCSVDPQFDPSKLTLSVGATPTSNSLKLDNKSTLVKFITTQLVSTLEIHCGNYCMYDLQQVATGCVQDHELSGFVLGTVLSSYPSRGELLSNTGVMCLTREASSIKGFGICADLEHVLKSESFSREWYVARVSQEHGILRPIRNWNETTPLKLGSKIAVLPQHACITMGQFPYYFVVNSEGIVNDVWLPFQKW", "test": "Influence of metal ion and EDTA on enzymatic activity, Nessler method", "description": "(§1) To a reaction solution (final volume: 200 μl) containing 50 mM of HEPES-NaOH buffer (pH 8.0), […] of pyridoxal-5′-phosphate and 10 mM of D-serine, an appropriate amount of D-serine dehydratase was added and incubated at 30° C. Thereafter, trichloroacetic acid (final concentration: 5%) was added to stop the reaction. Ammonia in the centrifuged supernatant was quantified by using a Nessler reagent.\nThe influence and effect of metal ion on the activity of the novel enzyme were examined by the following method. The compounds shown in FIG. 5 were incubated with untreated novel enzyme and 2 mM EDTA, and then dialyzed with Tris buffer solution. The D-serine dehydratase activity of the novel enzyme was measured by a Nessler method in the presence of 0.05 mM or 0.5 mM of any of KCl, NaCl, MnCl2, MgCl2, CaCl2, NiSO4, CuSO4 and ZnCl2."}, "[2]": {"test": "D-serine dehydratase activity of the purified enzyme, Nessler method", "conditions": "10 mM D-serine, HEPES-NaOH pH 8.0, 30° C.", "description": "as §1, with “The activity of serine dehydratase was measured as follows: ammonia as a reaction product was measured by a Nessler method or pyruvic acid as a reaction product was measured by coupling with lactate dehydrogenase and by oxidation of NADH. Hereinafter, outline of each method is shown. To” for “To”"}, "[3]": {"test": "Substrate-specificity by the Nessler method, L-serine as substrate", "conditions": "same conditions as D-serine", "description": "(§2) To a reaction solution (final volume: 200 μl) containing 50 mM of HEPES-NaOH buffer (pH 8.0), […] of pyridoxal-5′-phosphate and 10 mM of D-serine, an appropriate amount of D-serine dehydratase was added and incubated at 30° C. Thereafter, trichloroacetic acid (final concentration: 5%) was added to stop the reaction. Ammonia in the centrifuged supernatant was quantified by using a Nessler reagent. The substrate-specificity of the novel enzyme was examined by the following method. That is to say, as the substrate, L-serine and D-threonine in addition to D-serine were prepared, and the reactivity of the enzyme with respect to each substrate was examined by the Nessler method. Note here that the reactivity of the enzyme with respect to L-serine or D-threonine was examined by the Nessler method in the same conditions as in the case of D-Serine except that L-serine (Wako Pure Chemical Industries, Ltd.) or D-threonine (Wako Pure Chemical Industries, Ltd.) was used as a substrate."}, "[4]": {"test": "Substrate-specificity by the Nessler method, D-threonine as substrate", "conditions": "same conditions as D-serine", "description": "as §2"}, "[5]": {"test": "Effect of pH on enzymatic activity, Nessler method", "conditions": "MOPS, MES, HEPES, Tris buffers", "description": "as §1\nThe relationship between the activity of the novel enzyme and pH at the reaction was examined by the following method. In the Nessler method, buffer solution was changed to MOPS (pH 6.5-8.0), MES (pH 6.0-6.5), HEPES (pH 7.0-8.5), and Tris (pH 7.5-9.0), respectively. By using the reaction solution, the D-serine dehydratase activity of the novel enzyme was measured."}, "[6]": {"test": "Dynamic characteristic (reciprocal plot of rate against D-serine concentration), Nessler method", "conditions": "substrate D-serine", "description": "as §1\nThe dynamic characteristic of the novel enzyme was examined by the following method. In the Nessler method, the concentration of D-serine was changed and the D-serine dehydratase activity of the novel enzyme in the respective concentrations of D-serine was measured. The inverse number of the obtained rate was plotted to the inverse number of the D-serine concentration. Then, the maximum rate was calculated from the inverse number of the y section and Km value was calculated from the inverse number of the x section."}}, "note": "Entries after “also recorded” stand apart in the source; their conditions may differ."}
{"molecule": "[Cl-].[Cl-].[Zn+2]", "note": "[zinc, ZnCl2]", "values": [{"measurement": "effect of zinc on enzymatic activity", "setting": "[1]; addition of zinc to EDTA-treated enzyme, low concentration", "result": "activated"}, {"measurement": "zinc concentration at which the enzymatic activity was increased most", "setting": "[1]; same experiment while changing the zinc concentration", "result": 0.005, "unit": "mM"}]}
{"molecule": "O=C(O)CN(CCN(CC(=O)O)CC(=O)O)CC(=O)O", "note": "[EDTA]", "values": [{"measurement": "effect of EDTA on enzymatic activity", "setting": "[1]; incubated with 2 mM EDTA, then dialyzed with Tris buffer", "result": "mostly deactivated; also recorded: inhibited"}]}
{"molecule": "novel D-serine dehydratase: protein of Saccharomyces cerevisiae, YGL196W (SEQ ID NO: 1), with D-serine dehydratase activity; recombinant, His-tagged, expressed in Escherichia coli (protein, listed as Saccharomyces cerevisiae, His tag, recombinant, His-tagged, expressed in Escherichia coli) MSDVLSQYKGCSVRDLPTPNFVINEEKFDKNCTTMLNNVEKLSQECGVPIKFRAHVKTHKTAKGTLKQLGHGLPLAKRTTRAILVSTLKEAEELLNYQDRQCSDYIDDITYSLPCCVPEFIPLLSNLSRRVNNFQVFVDNIEHLENLKNFGRPASGKKWSVFIKVDMGTKRAGLAFDSPEFLSLLKKLTSSEIKEVIEPYGFYAHAGHSYSSTSINDTQNLLMEEVKAVNSAAKVLCSVDPQFDPSKLTLSVGATPTSNSLKLDNKSTLVKFITTQLVSTLEIHCGNYCMYDLQQVATGCVQDHELSGFVLGTVLSSYPSRGELLSNTGVMCLTREASSIKGFGICADLEHVLKSESFSREWYVARVSQEHGILRPIRNWNETTPLKLGSKIAVLPQHACITMGQFPYYFVVNSEGIVNDVWLPFQKW", "values": [{"measurement": "specific activity", "setting": "[2]", "result": 3.7, "unit": "gmol/min/mg"}, {"measurement": "reactivity with respect to L-serine", "setting": "[3]", "result": "does not react with L-serine at all"}, {"measurement": "reactivity with respect to L-serine", "setting": "[3]; listed as novel enzyme", "result": "no reactivity"}, {"measurement": "reactivity to D-threonine when the reactivity to D-serine was 100%", "setting": "[4]", "result": 5, "unit": "%"}, {"measurement": "reactivity with respect to D-threonine", "setting": "[4]", "result": "extremely low"}, {"measurement": "reactivity with respect to D-threonine", "setting": "[4]; listed as novel enzyme", "result": "low reaction"}, {"measurement": "optimum pH", "setting": "[5]", "result": "around 8"}, {"measurement": "maximum rate", "setting": "[6]; Example text", "result": 4.2, "unit": "µmol/min/mg"}, {"measurement": "Vmax value", "setting": "[6]; FIG. 7 legend", "result": 4.2, "unit": "µmol/min/mg"}, {"measurement": "Km", "setting": "[6]; read-out: Km value with respect to D-serine", "result": 460, "unit": "µM"}]}
